# Test results: patent publication US8080523
# Where two headings read alike, the source gives them in different places.
# T1: Kv1.3 (cloned) (Mus musculus (Mouse)), P16390
# T1 chain: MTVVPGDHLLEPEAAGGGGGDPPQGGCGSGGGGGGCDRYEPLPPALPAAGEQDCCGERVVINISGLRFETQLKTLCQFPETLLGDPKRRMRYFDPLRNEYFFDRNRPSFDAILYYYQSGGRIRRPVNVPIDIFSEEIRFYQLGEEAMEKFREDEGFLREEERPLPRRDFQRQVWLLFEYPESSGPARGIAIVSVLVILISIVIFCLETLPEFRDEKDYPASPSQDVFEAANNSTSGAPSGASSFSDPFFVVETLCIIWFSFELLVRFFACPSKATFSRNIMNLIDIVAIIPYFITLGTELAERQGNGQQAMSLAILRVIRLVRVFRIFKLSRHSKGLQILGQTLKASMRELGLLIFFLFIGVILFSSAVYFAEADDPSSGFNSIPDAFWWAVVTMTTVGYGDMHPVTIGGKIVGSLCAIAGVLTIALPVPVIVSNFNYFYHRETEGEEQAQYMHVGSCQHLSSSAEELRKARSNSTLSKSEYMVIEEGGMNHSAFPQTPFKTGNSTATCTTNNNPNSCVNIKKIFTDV
# T2: Kv1.1 (Mus musculus (Mouse)), P16388
# T2 chain: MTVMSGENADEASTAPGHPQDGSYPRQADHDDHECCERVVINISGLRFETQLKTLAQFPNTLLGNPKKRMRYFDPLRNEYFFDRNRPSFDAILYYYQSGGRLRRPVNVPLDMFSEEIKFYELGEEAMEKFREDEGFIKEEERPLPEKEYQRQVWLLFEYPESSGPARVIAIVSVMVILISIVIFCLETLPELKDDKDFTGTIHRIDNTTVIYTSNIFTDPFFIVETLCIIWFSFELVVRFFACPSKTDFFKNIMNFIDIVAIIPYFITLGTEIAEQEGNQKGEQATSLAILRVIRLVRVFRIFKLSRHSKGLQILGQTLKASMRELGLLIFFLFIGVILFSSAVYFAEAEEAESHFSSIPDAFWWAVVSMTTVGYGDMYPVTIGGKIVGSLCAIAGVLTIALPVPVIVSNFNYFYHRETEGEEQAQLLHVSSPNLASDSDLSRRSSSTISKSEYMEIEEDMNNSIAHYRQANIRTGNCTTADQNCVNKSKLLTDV
# How the values were obtained:
# [1] = target: T1, Kv1.3 (cloned) (Mus musculus (Mouse)), …
# [2] = target: T2, Kv1.1 (Mus musculus (Mouse)), P16388; test: patch-clamp, block of channel current
# [3] = target: T1, Kv1.3 (cloned) (Mus musculus (Mouse)), …; test: patch-clamp, block of channel current
# [4] = target: T2, Kv1.1 (Mus musculus (Mouse)), P16388; test: patch-clamp, ratio of Kd values; reference margatoxin on Kv1.3
Binder,Kd [1] [nM],Kd [2] [nM],Kd [3] [nM],fold selectivity for Kv1.3 over this channel [4] [fold]
RSCIDTIPKSRCTAFQCKHSMKYRLSFCRKTCGTC (modifications not checked) [ShK toxin],0.01,–,–,–
"TIINVKCTSPKQCLPPCKAQFGQSAGAKCMNGKCKCYPH (modifications not checked) [Margatoxin, P40755 1-39]",–,10,0.11,9
